Laboratory results reported in article PMC4896396 (Journal of the American Chemical Society, 2016).

Target: the molecule itself
Test: SEC-SAXS

B1: full-length rat phenylalanine hydroxylase (wt-PheH) (enzyme, UniProt P04176 1-453, looked up)
chain: MAAVVLENGVLSRKLSDFGQETSYIEDNSNQNGAISLIFSLKEEVGALAKVLRLFEENDINLTHIESRPSRLNKDEYEFFTYLDKRTKPVLGSIIKSLRNDIGATVHELSRDKEKNTVPWFPRTIQELDRFANQILSYGAELDADHPGFKDPVYRARRKQFADIAYNYRHGQPIPRVEYTEEEKQTWGTVFRTLKALYKTHACYEHNHIFPLLEKYCGFREDNIPQLEDVSQFLQTCTGFRLRPVAGLLSSRDFLGGLAFRVFHCTQYIRHGSKPMYTPEPDICHELLGHVPLFSDRSFAQFSQEIGLASLGAPDEYIEKLATIYWFTVEFGLCKEGDSIKAYGAGLLSSFGELQYCLSDKPKLLPLELEKTACQEYSVTEFQPLYYVAESFSDAKEKVRTFAATIPRPFSVRYDPYTQRVEVLDNTQQLKILADSINSEVGILCNALQKIKS
- stoichiometry N: 4
